The record followed here is patent US20170210813A1 (Regeneron, published 2017).

First the molecules themselves.
B1: H4H3096S (antibody, human IgG4, V domains shown)
VH: EVQLVQSGGSLVQPGGSLRLSCTASGFTFSSYWMSWVRQAPGKGLEWVANIQQDESEKYYVDSVKGRFSISRDNAKKSLYLQMNSLRAEDTAVYFCARDLVPPRQGDYYHYFGMDVWGQGTLVTVSS
VL: AIRMTQSPSTLSASVGDRVTITCRASQSISDWLAWYQQKPGKAPNLLIYKASSLESGVPSRFSGSGSGTEFTLTISGLQPDDFATYYCQQYNSYSRTFGQGTKLEIKR
notes: human IgG4 Fc (H4H prefix)
B2: H4H3098S (antibody, human IgG4, V domains shown)
VH: EVQLVESGGGVVQPGRSLRLSCAASGFTFSNYGMHWVRQAPGKGLEWVTVIWYDGSYKYYADSVKGRFTISRDNSKNRLYLQMNSLRAEDTAVYYCARGELGDAFDIWGQGTMVTVSS
VL: DIQMTQSPSTLSASVGDRLTITCRASQSISTWLAWYQQKPGKAPTLLIYKASSLESGVPSRFSGSGSGTDFTLTISSLQPDDFATYYCQQYKTSWTFGQGTKLEIKR
notes: human IgG4 Fc (H4H prefix)
B3: H4H3102S (antibody, human IgG4, V domains shown)
VH: EVQLVESGGDLVHPGRSLRLSCVASGFTFDDYTMHWVRQAPGKGLEWVSAISWNGDNINYAGSVKGRFTISRDNAKNSLYLEMNSLRVEDTAFYYCAKGRGFSFGFNYLGQGTMVTVSS
VL: AIRMTQSPSSLSASVGDRVTITCRASQDISNYLAWFQQQPGKAPKSLIYATSSLNSGVPSKFSGSGSGTDFTLTISSLQPEDFATYYCQQYKSYPLTFGGGTKVEIK
notes: human IgG4 Fc (H4H prefix)
B4: H4H3104S (antibody, human IgG4, V domains shown)
VH: QVQLVESGGGLVQPGGSLRLSCAAAGFTFSHYWMSWVRQAPGKGLEWVATIKKDGSERYYVDSVKGRFTISRDNARNSMYLEMNSLRTEDTAIYYCARDIVTPNTDYYFGMDVWGQGTTVTVSS
VL: DIQLTQSPSTLSASVGDRVTITCRASQSFNNWLSWYQQKPGKAPKLLIYMASTLESGVPSRFSGSGSGTDFTLTINSLQPDDFATYYCQQSNSYSRTFGHGTKVEIK
notes: human IgG4 Fc (H4H prefix)
B5: H4H3097S (antibody, human IgG4, V domains shown)
VH: QVQLVESGAEMKKPGASVKVSCKASGYTFTDYGINWVRQAPGQGLEWMGWVSGYNGNTVFAQKIQGRVTMTTDTSTSTAYMELRSLRSDDTAVYFCARISVRGHSYYHGMGVWGQGTTVTVSS
VL: AIRMTQSPSSLSASVGDRVTITCRASQDINSYLAWFQQKPGKAPKSLIYTASSLQSGVPSKFSGSGSGTDFTLTISSLQPEDFATYYCQQYNTYPYTFGQGTKVESK
notes: human IgG4 Fc (H4H prefix)

For the first assay, the target named is full length human PDGFR-beta on HEK293 cells (human, UniProt P09619 33-1106). Briefly: cell-based or functional assay.
full length human PDGFR-beta on HEK293 cells, sequence (P09619 33-1106 limits assumed): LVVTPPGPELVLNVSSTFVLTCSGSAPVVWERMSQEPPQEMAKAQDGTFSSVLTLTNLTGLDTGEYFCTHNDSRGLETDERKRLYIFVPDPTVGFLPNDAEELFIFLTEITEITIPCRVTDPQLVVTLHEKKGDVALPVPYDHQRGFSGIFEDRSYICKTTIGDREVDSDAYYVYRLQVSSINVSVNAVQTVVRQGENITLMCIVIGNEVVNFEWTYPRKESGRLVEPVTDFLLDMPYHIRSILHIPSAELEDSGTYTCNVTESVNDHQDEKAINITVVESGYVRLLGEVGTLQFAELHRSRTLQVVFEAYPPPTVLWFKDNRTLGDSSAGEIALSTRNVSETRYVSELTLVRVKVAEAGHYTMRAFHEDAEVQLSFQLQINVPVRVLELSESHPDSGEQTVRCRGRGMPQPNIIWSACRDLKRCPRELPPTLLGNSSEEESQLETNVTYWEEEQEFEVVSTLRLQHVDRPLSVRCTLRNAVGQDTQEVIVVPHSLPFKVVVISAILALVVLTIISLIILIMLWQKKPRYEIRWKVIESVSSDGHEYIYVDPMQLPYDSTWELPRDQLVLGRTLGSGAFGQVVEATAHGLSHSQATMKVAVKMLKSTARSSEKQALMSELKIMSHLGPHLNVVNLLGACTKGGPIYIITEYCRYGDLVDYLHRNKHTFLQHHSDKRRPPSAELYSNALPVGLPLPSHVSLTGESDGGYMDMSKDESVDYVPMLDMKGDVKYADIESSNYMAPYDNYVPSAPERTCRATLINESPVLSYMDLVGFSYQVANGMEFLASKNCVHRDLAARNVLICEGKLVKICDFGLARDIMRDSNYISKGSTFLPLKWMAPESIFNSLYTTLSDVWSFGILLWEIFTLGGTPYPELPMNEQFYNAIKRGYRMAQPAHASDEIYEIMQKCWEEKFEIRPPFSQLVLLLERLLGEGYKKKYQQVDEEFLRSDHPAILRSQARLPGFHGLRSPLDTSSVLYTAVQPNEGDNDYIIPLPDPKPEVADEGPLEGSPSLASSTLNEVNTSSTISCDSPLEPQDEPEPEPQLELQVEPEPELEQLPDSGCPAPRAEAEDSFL
For the molecule B1, the “IC50, blocking PDGF-BB (250 pM) activation, SRE-luciferase” value (shortened to “IC50, blocking PDGF-BB”) came out at 4.5e-10 M and the “IC50, blocking PDGF-DD (400 pM) activation, SRE-luciferase” value (shortened to “IC50, blocking PDGF-DD”) amounted to 5.8e-10 M.

Turning to B2, the “IC50, blocking PDGF-BB” value was found to be 1.2e-09 M and the “IC50, blocking PDGF-DD” value was found to be 1.1e-09 M.

Consider B3, for which the “IC50, blocking PDGF-BB” value worked out at 4.1e-09 M and the “IC50, blocking PDGF-DD” value was found to be 4.4e-09 M.

On to B4, for which the “IC50, blocking PDGF-BB” value is 5e-10 M and the “IC50, blocking PDGF-DD” value came out at 3.3e-10 M.

The next assay concerns the target T1, human PDGFRb.hFc (human).
T1 construct: Soluble dimeric construct with human Fc; also called hPDGFRb.hFc
Briefly: SPR, mAb captured, 25 C. As to the method:
(§1) Antibodies, expressed as either mouse Fc (prefix H1M; H2M) or human Fc (prefix H4H), were captured on their respective anti-Fc sensor surfaces (Mab capture format). […] Kinetic association (kₐ) and dissociation (kd) rate constants were determined by processing and fitting the data to a 1:1 binding model using Scrubber 2.0 curve fitting software.
In general terms: Surface plasmon resonance follows binding to a sensor surface in real time, without labels.
Molecule B1 displayed a Kd of 1.17 nM, a koff of 0.00026 s⁻¹, a kon of 222000 M⁻¹ s⁻¹ and a t1/2 of 44 min.

In the case of B2, binding was characterised by a dissociation constant (Kd) of 0.219 nM, the koff stood at 6.22e-05 s⁻¹, the kon is 280000 M⁻¹ s⁻¹ and the t1/2 is 186 min.

As for B3, binding was characterised by a dissociation constant (Kd) of 0.39 nM, the off-rate constant (koff) was found to be 0.000118 s⁻¹, the kon was found to be 300000 M⁻¹ s⁻¹ and the t1/2 was determined as 98 min.

Take B4: binding was put at a Kd of 0.304 nM, the koff came to 0.000146 s⁻¹, the kon stood at 480000 M⁻¹ s⁻¹ and the t1/2 was determined as 79 min.

B5: the binding result is listed as “no binding”.

The next assay has as its target T2, Macaca fascicularis PDGFRb.mmh (Macaca fascicularis).
T2 construct: Soluble monomeric construct; also called mfPDGFRb.mmh
T2 chain: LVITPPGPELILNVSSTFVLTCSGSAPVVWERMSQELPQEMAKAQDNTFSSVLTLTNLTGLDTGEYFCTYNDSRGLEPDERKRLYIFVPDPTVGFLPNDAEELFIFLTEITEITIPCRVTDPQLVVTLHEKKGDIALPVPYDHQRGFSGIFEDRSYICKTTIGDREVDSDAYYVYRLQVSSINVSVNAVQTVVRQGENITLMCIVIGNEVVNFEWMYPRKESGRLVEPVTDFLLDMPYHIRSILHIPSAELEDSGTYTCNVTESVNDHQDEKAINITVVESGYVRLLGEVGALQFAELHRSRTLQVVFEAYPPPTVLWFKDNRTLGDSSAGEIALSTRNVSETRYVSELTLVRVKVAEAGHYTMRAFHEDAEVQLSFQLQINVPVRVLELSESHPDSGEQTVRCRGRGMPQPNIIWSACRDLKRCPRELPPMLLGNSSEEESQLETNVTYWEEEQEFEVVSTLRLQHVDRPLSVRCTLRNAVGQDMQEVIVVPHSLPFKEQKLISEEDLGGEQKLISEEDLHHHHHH
Briefly: SPR, mAb captured, 25 C. Here is the method: as §1
B1: the Kd was determined as 6.39 nM, the dissociation rate constant (koff) worked out at 0.00117 s⁻¹, the association rate constant (kon) was 182000 M⁻¹ s⁻¹ and the t1/2 amounted to 10 min.

As to B2, the Kd is 68.9 nM, the koff turned out to be 0.0094 s⁻¹, the association rate constant (kon) came out at 136000 M⁻¹ s⁻¹ and the t1/2 amounted to 1.2 min.

B3 gave a dissociation constant (Kd) of 1.73 nM, an off-rate (koff) of 0.000489 s⁻¹, a kon of 283000 M⁻¹ s⁻¹ and a t1/2 of 24 min.

As for B4, the Kd worked out at 0.909 nM, the koff was 0.000714 s⁻¹, the kon turned out to be 786000 M⁻¹ s⁻¹ and the t1/2 is 16 min.

With B5, the binding result is “no binding”.

The next assay addresses T3, hPDGFRb.mmh (human, UniProt P09619 33-531).
T3 construct: Soluble monomeric construct; also called soluble human PDGFR-beta.mmh
Briefly: SPR, mAb captured, 25 C. As to the method: as §1
In turn, B1 registered a Kd of 3.68 nM, a koff of 0.00104 s⁻¹, an on-rate (kon) of 281000 M⁻¹ s⁻¹ and a t1/2 of 11 min.

Take B2: the Kd turned out to be 1.54 nM, the off-rate (koff) came to 0.000596 s⁻¹, the association rate constant (kon) amounted to 386000 M⁻¹ s⁻¹ and the t1/2 is 19 min.

B3 had a dissociation constant (Kd) of 0.89 nM, a koff of 0.000455 s⁻¹, a kon of 509000 M⁻¹ s⁻¹ and a t1/2 of 25 min.

Turning to B4, the Kd stood at 1.61 nM, the koff was found to be 0.000688 s⁻¹, the association rate constant (kon) is 428000 M⁻¹ s⁻¹ and the t1/2 is 17 min.

Turning to B5, the binding result is listed as “no binding”.

Another assay addresses T3, hPDGFRb.mmh. Briefly: blocking ELISA, biot-hPDGFRb.mmh to coated PDGF-BB. Here is the method: The equilibrated PDGFR-beta/antibody solutions were added to ligand-coated plates, allowed to incubate for 1 hr, and washed. Levels of bound biot-hPDGFR-beta.mmh were detected using HRP conjugated streptavidin. Data were analyzed using Prism software and IC₅₀ values were calculated as the amount of antibody required to achieve 50% reduction of hPDGFR-beta-mmh bound to ligand. Maximum blocking values were also calculated and reflect the ability of the antibody to block relative to baseline. The absorbance measured at the constant amount of 250 pM biot-hPDGFR-beta-mmh on the dose curve is defined as 0% blocking and the absorbance with no added PDGFR-beta is defined as 100%. The absorbance of the wells containing the highest antibody concentration determined the maximum blocking percent.
Target sequence in this assay (P09619 other isoform, or with tags, fused parts or gaps): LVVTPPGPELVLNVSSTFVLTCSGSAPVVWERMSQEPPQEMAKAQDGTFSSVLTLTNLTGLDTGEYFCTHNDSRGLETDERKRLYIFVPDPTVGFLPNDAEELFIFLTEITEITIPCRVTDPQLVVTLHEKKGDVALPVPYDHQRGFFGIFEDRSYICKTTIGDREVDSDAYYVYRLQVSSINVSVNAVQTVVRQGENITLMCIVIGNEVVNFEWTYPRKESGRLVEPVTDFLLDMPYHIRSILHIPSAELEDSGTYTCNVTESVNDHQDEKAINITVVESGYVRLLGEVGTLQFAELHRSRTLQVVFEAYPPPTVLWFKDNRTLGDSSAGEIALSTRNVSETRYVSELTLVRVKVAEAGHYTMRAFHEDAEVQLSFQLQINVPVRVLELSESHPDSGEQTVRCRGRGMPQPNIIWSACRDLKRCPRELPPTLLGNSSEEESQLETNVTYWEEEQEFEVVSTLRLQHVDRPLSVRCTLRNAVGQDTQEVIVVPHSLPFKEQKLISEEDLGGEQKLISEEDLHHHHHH
As for B1, the “% Maximum Blocking” value was 84% and the concentration for half-maximal inhibition (IC50) stood at 0.18 nM.

Turning to B2, the “% Maximum Blocking” value was -13%.

With B3, the “% Maximum Blocking” value amounted to 30%.

For B4, the “% Maximum Blocking” value is 89% and half-maximal inhibition (IC50) was put at 0.38 nM.

Regarding B5, the “% Maximum Blocking” value came out at 5%.

A further assay has as its target T1, human PDGFRb.hFc. Briefly: SPR, mAb captured, 37 C. Here is the method:
as §1
Regarding B1, the equilibrium dissociation constant (Kd) is 3.1 nM, the dissociation rate constant (koff) is 0.000793 s⁻¹, the on-rate (kon) is 250000 M⁻¹ s⁻¹ and the t1/2 came out at 15 min.

For B2, binding was put at a Kd of 0.206 nM, the dissociation rate constant (koff) was 7.66e-05 s⁻¹, the kon was determined as 374000 M⁻¹ s⁻¹ and the t1/2 was 151 min.

B3: binding was put at a Kd of 0.76 nM, the koff came to 0.000319 s⁻¹, the on-rate (kon) worked out at 420000 M⁻¹ s⁻¹ and the t1/2 amounted to 36 min.

As for B4, the equilibrium dissociation constant (Kd) came out at 0.606 nM, the koff was found to be 0.000567 s⁻¹, the kon stood at 936000 M⁻¹ s⁻¹ and the t1/2 came to 20 min.

The target of the next assay is T2, Macaca fascicularis PDGFRb.mmh. Put plainly: SPR, mAb captured, 37 C. As to the method: as §1
The molecule B1 had a Kd of 31.6 nM, a koff of 0.00512 s⁻¹, a kon of 162000 M⁻¹ s⁻¹ and a t1/2 of 2 min.

The molecule B2 came in with a Kd of 95.6 nM, a koff of 0.0267 s⁻¹, an on-rate constant (kon) of 280000 M⁻¹ s⁻¹ and a t1/2 of 0.4 min.

In the case of B3, the equilibrium dissociation constant (Kd) came to 2.86 nM, the koff came out at 0.00164 s⁻¹, the kon turned out to be 574000 M⁻¹ s⁻¹ and the t1/2 worked out at 7 min.

B4: the Kd came to 4.05 nM, the dissociation rate constant (koff) worked out at 0.00299 s⁻¹, the kon stood at 740000 M⁻¹ s⁻¹ and the t1/2 came to 4 min.

The target in another assay is T3, hPDGFRb.mmh. Put plainly: SPR, mAb captured, 37 C. As to the method:
as §1
Target sequence in this assay (P09619 other isoform, or with tags, fused parts or gaps): as above
B1 returned a Kd of 13.8 nM, a koff of 0.00624 s⁻¹, a kon of 452000 M⁻¹ s⁻¹ and a t1/2 of 2 min.

For the molecule B2, the Kd was found to be 2.34 nM, the koff came to 0.00171 s⁻¹, the kon amounted to 733000 M⁻¹ s⁻¹ and the t1/2 is 7 min.

On to B3, for which the Kd amounted to 1.42 nM, the koff was determined as 0.00147 s⁻¹, the kon amounted to 1.04e+06 M⁻¹ s⁻¹ and the t1/2 came out at 8 min.

Regarding B4, binding was put at a Kd of 3.37 nM, the koff was determined as 0.0028 s⁻¹, the kon is 833000 M⁻¹ s⁻¹ and the t1/2 was 4 min.

In general, Kd refers to the free concentration of one partner at which half of the binding sites on the other are occupied at equilibrium, for simple one-to-one binding. What is called koff is the rate constant with which the complex falls apart. The low end stands for slow dissociation, the high end for fast dissociation. As usually defined, the kon is the rate constant with which the complex forms. Read a low kon as slow association. One may read the IC50 as the concentration at which inhibition is half-maximal.
